Measurements from paper PMC8213806 (Nature Communications, 2021).

How the values were obtained:
Test in all cases: pull-down
Details in all cases: both partners purified
[1] = biological target: TcdB1 holotoxin L563G/I566G (Clostridioides difficile (VPI10463 …, UniProt P18177 1-2366, L563G | I566G))
[2] = biological target: TcdB1 holotoxin F1823G/I1825G/M1831G (Clostridioides difficile (VPI10463 …, UniProt P18177 1-2366, F1823G | I1825G | M1831G))
TcdB1 holotoxin Y621A = TcdB1 holotoxin Y621A (Clostridioides difficile (VPI10463 …, UniProt P18177 1-2366, Y621A))
[3] = biological target: TcdB1 holotoxin V1816G/L1818G (Clostridioides difficile (VPI10463 …, UniProt P18177 1-2366, V1816G | L1818G))
TcdB1 holotoxin S567E = TcdB1 holotoxin S567E (Clostridioides difficile (VPI10463 …, UniProt P18177 1-2366, S567E))
TcdB1 holotoxin N1850A = TcdB1 holotoxin N1850A (Clostridioides difficile (VPI10463 …, UniProt P18177 1-2366, N1850A))
TcdB1 holotoxin Y603G = TcdB1 holotoxin Y603G (Clostridioides difficile (VPI10463 …, UniProt P18177 1-2366, Y603G))
TcdB1 holotoxin N1758A = TcdB1 holotoxin N1758A (Clostridioides difficile (VPI10463 …, UniProt P18177 1-2366, N1758A))
TcdB1 holotoxin D1812G = TcdB1 holotoxin D1812G (Clostridioides difficile (VPI10463 …, UniProt P18177 1-2366, D1812G))

Measured: binding result

B1: Repeat1-Fc (CSPG4 Repeat1, residues 410–551, fused to the N-terminus of human IgG1 Fc) (Fc fusion)
chain: ELPEPCVPEPGLPPVFANFTQLLTISPLVVAEGGTAWLEWRHVQPTLDLMEAELRKSQVLFSVTRGARHGELELDIPGAQARKMFTLLDVVNRKARFIHDGSEDTSDQLVLEVSVTARVPMPSCLRRGQTYLLPIQVNPVND
notes: also called CSPG4 decoy; source: FreeStyle HEK 293 cells, secreted, purified (Ni-NTA); not shown: Fc (human IgG1), C-terminal, kept
binds: [1] | [2] | TcdB1 holotoxin Y621A | [3] | TcdB1 holotoxin S567E | TcdB1 holotoxin N1850A | TcdB1 holotoxin Y603G | TcdB1 holotoxin N1758A | TcdB1 holotoxin D1812G
